Measured values reported in paper PMC11117632, “Rapid and Sensitive Detection of Inactivated SARS-CoV-2 Virus via Fiber-Optic and Electrochemical Impedance Spectroscopy Based Aptasensors”.

B1: aptamer 6.9 (ssDNA)
DNA: GCAATGGTACGGTACTTCCATGGCTGGTGCTTGAGGTGTGTGTGGGGGTAGGGCCAAAAGTGCACGCTACTTTGCTAA
B2: aptamer 6.8 (ssDNA)
DNA: GCAATGGTACGGTACTTCCCGGGGCGGGCTGTCATGCCCATCCTACCGTGACCGCAAAAGTGCACGCTACTTTGCTAA

Biological target: SARS-CoV-2 spike protein (SARS-CoV-2, UniProt P0DTC2 14-1213)
Assay: ELONA; binding buffer 50 mM HEPES pH 7.4, 100 mM NaCl, 5 mM KCl, 2 mM MgCl2, 1 mM CaCl2; […]
Settings: protein: recombinant, chain copies: 3, label: biotin

| Binder | binding result | binding result (predicted partial stem-loops) |
| --- | --- | --- |
| B1 | no binding | – |
| B2 | – | no binding |
